# Reference: US20070054353A1 (published 2007)
# T1: GST-TIF2.1 (UniProt Q15596 624-1287)
# T1 construct: also called GST fused to TIF2.1; not shown: glutathione S-transferase (GST) tag of vector pGEX2T
# T1 sequence (looked up): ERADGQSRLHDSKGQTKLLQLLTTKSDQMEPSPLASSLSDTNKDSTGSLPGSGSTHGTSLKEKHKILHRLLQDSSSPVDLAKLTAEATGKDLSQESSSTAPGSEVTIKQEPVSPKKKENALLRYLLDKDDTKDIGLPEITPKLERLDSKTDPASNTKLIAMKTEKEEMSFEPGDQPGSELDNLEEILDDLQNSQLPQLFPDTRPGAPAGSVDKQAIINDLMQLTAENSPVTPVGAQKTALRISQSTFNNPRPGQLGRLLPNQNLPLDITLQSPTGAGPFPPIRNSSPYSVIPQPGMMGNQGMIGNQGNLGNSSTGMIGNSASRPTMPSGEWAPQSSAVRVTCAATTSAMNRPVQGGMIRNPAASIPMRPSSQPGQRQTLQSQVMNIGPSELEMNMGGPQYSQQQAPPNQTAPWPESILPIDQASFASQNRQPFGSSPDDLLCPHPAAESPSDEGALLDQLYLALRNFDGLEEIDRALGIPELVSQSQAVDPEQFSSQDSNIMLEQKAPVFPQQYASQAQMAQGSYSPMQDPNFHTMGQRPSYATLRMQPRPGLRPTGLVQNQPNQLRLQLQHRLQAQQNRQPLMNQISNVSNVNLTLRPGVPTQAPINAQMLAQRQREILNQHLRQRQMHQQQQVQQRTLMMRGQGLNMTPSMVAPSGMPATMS
# T2: ERα-EYFP fusion protein (UniProt P03372 1-595)
# T2 construct: also called EYFP-ERα; not shown: EYFP (engineered fluorescent protein) of vector pEYFP-CMV
# T2 sequence (looked up): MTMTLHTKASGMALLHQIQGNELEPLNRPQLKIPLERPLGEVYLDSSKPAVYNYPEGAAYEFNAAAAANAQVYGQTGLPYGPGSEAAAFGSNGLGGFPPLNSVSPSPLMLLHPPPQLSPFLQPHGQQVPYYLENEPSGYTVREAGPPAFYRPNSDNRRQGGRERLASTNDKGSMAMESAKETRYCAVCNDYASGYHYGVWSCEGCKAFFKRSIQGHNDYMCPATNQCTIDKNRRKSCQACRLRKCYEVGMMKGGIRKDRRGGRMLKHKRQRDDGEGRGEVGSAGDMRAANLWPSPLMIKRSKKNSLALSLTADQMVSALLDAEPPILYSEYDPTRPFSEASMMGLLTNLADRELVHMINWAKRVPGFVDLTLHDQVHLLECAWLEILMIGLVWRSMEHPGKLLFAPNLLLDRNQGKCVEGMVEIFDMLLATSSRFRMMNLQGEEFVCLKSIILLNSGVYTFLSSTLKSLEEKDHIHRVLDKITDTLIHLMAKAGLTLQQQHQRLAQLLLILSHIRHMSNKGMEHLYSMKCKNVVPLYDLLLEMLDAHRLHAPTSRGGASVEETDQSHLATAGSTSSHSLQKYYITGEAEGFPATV
# B1: GST-LCoR (other)
# chain: MQRMIQQFAAEYTSKNSSTQDPSQPNSTKNQSLPKASPVTTSPTAATTQNPVLSKLLMADQDSPLDLTVRKSQSEPSEQDGVLDLSTKKSPCAGSTSLSHSPGCSSTQGNGRPGRPSQYRPDGLRSGDGVPPRSLQDGTREGFGHSTSLKVPLARSLQISEELLSRNQLSTAASLGPSGLQNHGQHLILSREASWAKPHYEFNLSRMKFRGNGALSNISDLPFLAENSAFPKMALQAKQDGKKDVSHSSPVDLKIPQVRGMDLSWESRTGDQYSYSSLVMGSQTESALSKKLRAILPKQSRKSMLDAGPDSWGSDAEQSTPGQPYPTSDQEGDPGSKQPRKKRGRYRQYNSEILEEAISVVMSGKMSVSKAQSIYGIPHSTLEYKVKERLGTLKNPPKKKMKLMRSEGPDVSVKIELDPQGEAAQSANESKNE
# notes: also called GST fused to LCoR; not shown: glutathione S-transferase (GST) tag of vector pGEX2TK
# Key:
# GST-LCoR = target: B1; assay: GST pull-down
# GST-TIF2.1 = target: T1, GST-TIF2.1; assay: GST pull-down, in vitro translated ER378
# ERα-EYFP fusion protein = target: T2, ERα-EYFP fusion protein; assay: BRET in living COS-7 cells
# Protocol: Cells were washed (2×) with PBS and harvested with 500 μl of PBS-5 mM EDTA. […] Readings were started immediately after coelenterazine H addition, and 10 repeated measures were taken.
# BRET ratios were calculated as described in experimental procedures.
# HDAC1 = target: T3, HDAC1 (UniProt Q13547 1-482); assay: GST pull-down, in vitro translated HDAC
# T3 construct: also called histone deacetylase 1
# T3 sequence (Q13547 whole entry): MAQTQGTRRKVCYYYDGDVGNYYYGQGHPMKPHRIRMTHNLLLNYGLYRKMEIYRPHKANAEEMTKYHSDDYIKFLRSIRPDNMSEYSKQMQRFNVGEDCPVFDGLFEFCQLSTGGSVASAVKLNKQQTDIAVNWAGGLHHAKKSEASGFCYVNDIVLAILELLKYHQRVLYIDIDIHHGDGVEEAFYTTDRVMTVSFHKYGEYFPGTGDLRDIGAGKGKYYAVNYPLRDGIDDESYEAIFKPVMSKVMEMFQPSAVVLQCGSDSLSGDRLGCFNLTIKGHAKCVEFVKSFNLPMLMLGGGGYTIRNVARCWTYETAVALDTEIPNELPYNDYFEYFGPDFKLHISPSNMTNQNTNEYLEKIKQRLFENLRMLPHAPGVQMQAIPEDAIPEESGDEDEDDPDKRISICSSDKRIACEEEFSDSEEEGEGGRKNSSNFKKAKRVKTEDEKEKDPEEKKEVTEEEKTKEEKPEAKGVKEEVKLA
# HDAC4 = target: T4, HDAC4 (UniProt P56524 1-1084, limits assumed); assay: GST pull-down, in vitro translated HDAC
# T4 construct: also called histone deacetylase 4
# T4 sequence (P56524 whole entry): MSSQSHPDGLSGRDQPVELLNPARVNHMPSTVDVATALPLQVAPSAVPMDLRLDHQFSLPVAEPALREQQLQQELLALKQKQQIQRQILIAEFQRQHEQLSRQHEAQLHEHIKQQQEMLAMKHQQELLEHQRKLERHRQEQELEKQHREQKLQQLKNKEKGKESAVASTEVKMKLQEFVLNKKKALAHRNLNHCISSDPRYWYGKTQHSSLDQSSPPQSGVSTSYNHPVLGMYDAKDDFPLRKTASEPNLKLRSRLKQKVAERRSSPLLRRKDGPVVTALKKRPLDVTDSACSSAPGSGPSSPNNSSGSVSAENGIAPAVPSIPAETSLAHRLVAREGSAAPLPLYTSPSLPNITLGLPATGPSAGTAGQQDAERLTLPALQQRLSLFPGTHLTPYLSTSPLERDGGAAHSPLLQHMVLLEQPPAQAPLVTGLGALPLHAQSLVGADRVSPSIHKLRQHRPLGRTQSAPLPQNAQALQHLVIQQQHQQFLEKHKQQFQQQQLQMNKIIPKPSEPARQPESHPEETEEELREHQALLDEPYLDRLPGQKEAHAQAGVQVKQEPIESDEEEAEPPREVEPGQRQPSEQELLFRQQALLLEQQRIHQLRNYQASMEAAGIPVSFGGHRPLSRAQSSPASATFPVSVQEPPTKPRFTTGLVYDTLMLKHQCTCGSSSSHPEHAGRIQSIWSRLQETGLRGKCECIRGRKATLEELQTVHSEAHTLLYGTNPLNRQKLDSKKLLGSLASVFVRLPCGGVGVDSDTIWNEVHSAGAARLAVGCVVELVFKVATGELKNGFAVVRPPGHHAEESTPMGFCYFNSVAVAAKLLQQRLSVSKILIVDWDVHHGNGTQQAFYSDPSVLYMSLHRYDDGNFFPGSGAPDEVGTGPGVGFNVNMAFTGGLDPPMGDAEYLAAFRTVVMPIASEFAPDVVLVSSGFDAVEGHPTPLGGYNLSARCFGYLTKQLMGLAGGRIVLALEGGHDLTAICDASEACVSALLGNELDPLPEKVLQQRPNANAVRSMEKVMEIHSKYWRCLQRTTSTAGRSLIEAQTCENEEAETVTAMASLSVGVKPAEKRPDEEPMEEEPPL
# [1] = target: CtBP1 (C-terminal binding protein 1) (human, UniProt Q13363 1-440); assay: coimmunoprecipitation with anti-CtBP antibody from transfected MCF-7 cells
# Protocol: For immunoprecipitation of endogenous CtBP, CtIP, Rb, or Bmi1, MCF-7 cells in 150 mm dishes were lysed 3 min at 4° C. in 1 ml of LB (150 mM NaCl/10 mM Tris-HCl pH 7.4/0.2 mM Na orthovanadate/1 mM EDTA/1 mM EGTA/1% Triton-100X/0.5% IGEPAL CA-630/protease inhibitor cocktail; Boehringer-Mannheim, Laval, Qc). Cell debris were pelleted by centrifugation (14,000 rpm, 5 min), and proteins immunoprecipitated with 4 μg of αCtBP or αCtIP or αRb or polyclonal rabbit αBMI1 or control rabbit or goat IgG at 4° C. overnight followed by 2 hours incubation at 4° C. with protein A agarose (for αCtBP, αBmi1, control rabbit IgG) or protein A+G agarose (for αCtIP or αRb or control goat IgG). Beads were washed (3×) with LB. […] For immunoprecipitation of tagged proteins, transfected MCF-7 cells were lysed 30 min at 4° C. in 1 ml of LB, 48 h after transfection. Supernatants were cleared, incubated overnight with 4 μg of aCtBP or α-Flag M2 antibody followed by 2 hours incubation with protein-A agarose or protein A+G agarose beads respectively. Beads were washed (3×) with LB and Western blotted as above. Dilutions of specific antibodies used for Western blotting were: α-CtBP1 , α-CtBP2 (1:100), α-Flag M2-peroxidase (1:100).
binder,measurement,setting,value
"ERα A/B domain (receptor, UniProt P03372 1-180, looked up, range 1-180; also called ERα truncated to amino acid 180) MTMTLHTKASGMALLHQIQGNELEPLNRPQLKIPLERPLGEVYLDSSKPAVYNYPEGAAYEFNAAAAANAQVYGQTGLPYGPGSEAAAFGSNGLGGFPPLNSVSPSPLMLLHPPPQLSPFLQPHGQQVPYYLENEPSGYTVREAGPPAFYRPNSDNRRQGGRERLASTNDKGSMAMESAK",binding result,GST-LCoR,no binding
"ER378 (receptor, UniProt P03372 1-378, looked up, In vitro translated) MTMTLHTKASGMALLHQIQGNELEPLNRPQLKIPLERPLGEVYLDSSKPAVYNYPEGAAYEFNAAAAANAQVYGQTGLPYGPGSEAAAFGSNGLGGFPPLNSVSPSPLMLLHPPPQLSPFLQPHGQQVPYYLENEPSGYTVREAGPPAFYRPNSDNRRQGGRERLASTNDKGSMAMESAKETRYCAVCNDYASGYHYGVWSCEGCKAFFKRSIQGHNDYMCPATNQCTIDKNRRKSCQACRLRKCYEVGMMKGGIRKDRRGGRMLKHKRQRDDGEGRGEVGSAGDMRAANLWPSPLMIKRSKKNSLALSLTADQMVSALLDAEPPILYSEYDPTRPFSEASMMGLLTNLADRELVHMINWAKRVPGFVDLTLHDQVHL",binding result,GST-TIF2.1,no binding
"HE15 (receptor, UniProt P03372 1-282, looked up, range 1-282; also called ERα truncated to amino acid 282 in region D) MTMTLHTKASGMALLHQIQGNELEPLNRPQLKIPLERPLGEVYLDSSKPAVYNYPEGAAYEFNAAAAANAQVYGQTGLPYGPGSEAAAFGSNGLGGFPPLNSVSPSPLMLLHPPPQLSPFLQPHGQQVPYYLENEPSGYTVREAGPPAFYRPNSDNRRQGGRERLASTNDKGSMAMESAKETRYCAVCNDYASGYHYGVWSCEGCKAFFKRSIQGHNDYMCPATNQCTIDKNRRKSCQACRLRKCYEVGMMKGGIRKDRRGGRMLKHKRQRDDGEGRGEVGS",binding result,GST-LCoR,no binding
"LCoR-LSKAA-rluc fusion protein (other, also called rluc-LCoR-LSKAA; not shown: Renilla luciferase (rluc) of vector pRL-CMV) MQRMIQQFAAEYTSKNSSTQDPSQPNSTKNQSLPKASPVTTSPTAATTQNPVLSKAAMADQDSPLDLTVRKSQSEPSEQDGVLDLSTKKSPCAGSTSLSHSPGCSSTQGNGRPGRPSQYRPDGLRSGDGVPPRSLQDGTREGFGHSTSLKVPLARSLQISEELLSRNQLSTAASLGPSGLQNHGQHLILSREASWAKPHYEFNLSRMKFRGNGALSNISDLPFLAENSAFPKMALQAKQDGKKDVSHSSPVDLKIPQVRGMDLSWESRTGDQYSYSSLVMGSQTESALSKKLRAILPKQSRKSMLDAGPDSWGSDAEQSTPGQPYPTSDQEGDPGSKQPRKKRGRYRQYNSEILEEAISVVMSGKMSVSKAQSIYGIPHSTLEYKVKERLGTLKNPPKKKMKLMRSEGPDVSVKIELDPQGEAAQSANESKNE",fold reduction of hormone-independent interaction against wild-type LCoR,ERα-EYFP fusion protein,~2 fold
B1,binding result,HDAC1,no binding
same,binding result,HDAC4,no binding
"GST-LSKAA (other, Positions 56 and 57 are counted from the printed motif start (53); also called GST-LCoR-LSKAA; GST fused to LCoR-LSKAA; not shown: glutathione S-transferase (GST) tag of vector pGEX2TK) MQRMIQQFAAEYTSKNSSTQDPSQPNSTKNQSLPKASPVTTSPTAATTQNPVLSKAAMADQDSPLDLTVRKSQSEPSEQDGVLDLSTKKSPCAGSTSLSHSPGCSSTQGNGRPGRPSQYRPDGLRSGDGVPPRSLQDGTREGFGHSTSLKVPLARSLQISEELLSRNQLSTAASLGPSGLQNHGQHLILSREASWAKPHYEFNLSRMKFRGNGALSNISDLPFLAENSAFPKMALQAKQDGKKDVSHSSPVDLKIPQVRGMDLSWESRTGDQYSYSSLVMGSQTESALSKKLRAILPKQSRKSMLDAGPDSWGSDAEQSTPGQPYPTSDQEGDPGSKQPRKKRGRYRQYNSEILEEAISVVMSGKMSVSKAQSIYGIPHSTLEYKVKERLGTLKNPPKKKMKLMRSEGPDVSVKIELDPQGEAAQSANESKNE",binding result,HDAC1,no binding
same,binding result,HDAC4,no binding
"Flag-m1+2 (Flag-tagged LCoR mutated in both CtBP binding sites) (other, not shown: small tags and cut ends, also called LCoR derivative (m1+2)) MQRMIQQFAAEYTSKNSSTQDPSQPNSTKNQSLPKASPVTTSPTAATTQNPVLSKLLMADQDSKSQSEPSEQDGKSPCAGSTSLSHSPGCSSTQGNGRPGRPSQYRPDGLRSGDGVPPRSLQDGTREGFGHSTSLKVPLARSLQISEELLSRNQLSTAASLGPSGLQNHGQHLILSREASWAKPHYEFNLSRMKFRGNGALSNISDLPFLAENSAFPKMALQAKQDGKKDVSHSSPVDLKIPQVRGMDLSWESRTGDQYSYSSLVMGSQTESALSKKLRAILPKQSRKSMLDAGPDSWGSDAEQSTPGQPYPTSDQEGDPGSKQPRKKRGRYRQYNSEILEEAISVVMSGKMSVSKAQSIYGIPHSTLEYKVKERLGTLKNPPKKKMKLMRSEGPDVSVKIELDPQGEAAQSANESKNE",binding result,[1],no binding
